Key:
[1] = molecular target: DR5 cloned in the pVP16 vector as an activation-domain fusion (UniProt O14763); assay: cell-based or functional assay
[2] = molecular target: T1, ACEA (CEA/CEACAM5 A1 domain to B3 domain, N domain deleted) (Homo sapiens, UniProt P06731 P06731:145-675); assay: SPR; Biacore 2000; conditions: tags: pET28a(+), Ni-NTA (His), E. coli BL21
Method: (§1) To measure the affinity of RNA aptamer to CEA, SPR analysis was performed with Biacore 2000 (GE healthcare) device. Various concentrations of RNAs (Trunc. GROUP 1-1 & 1-2 and Mutant GROUP 1-1 & 1-2, Loop-only, Library) were flowed on NCEA and ACEA to measure the binding affinity, which is shown in the following TABLE 4 and FIG. 4.

[3] = molecular target: T2, NCEA (CEA/CEACAM5 N domain to B3 domain) (Homo sapiens, UniProt P06731 P06731:35-675); assay: SPR; Biacore 2000; conditions: tags: pET28a(+), Ni-NTA (His), E. coli BL21; hairpin-loop (predicted)
T2 sequence (P06731 35-675, one chain of several): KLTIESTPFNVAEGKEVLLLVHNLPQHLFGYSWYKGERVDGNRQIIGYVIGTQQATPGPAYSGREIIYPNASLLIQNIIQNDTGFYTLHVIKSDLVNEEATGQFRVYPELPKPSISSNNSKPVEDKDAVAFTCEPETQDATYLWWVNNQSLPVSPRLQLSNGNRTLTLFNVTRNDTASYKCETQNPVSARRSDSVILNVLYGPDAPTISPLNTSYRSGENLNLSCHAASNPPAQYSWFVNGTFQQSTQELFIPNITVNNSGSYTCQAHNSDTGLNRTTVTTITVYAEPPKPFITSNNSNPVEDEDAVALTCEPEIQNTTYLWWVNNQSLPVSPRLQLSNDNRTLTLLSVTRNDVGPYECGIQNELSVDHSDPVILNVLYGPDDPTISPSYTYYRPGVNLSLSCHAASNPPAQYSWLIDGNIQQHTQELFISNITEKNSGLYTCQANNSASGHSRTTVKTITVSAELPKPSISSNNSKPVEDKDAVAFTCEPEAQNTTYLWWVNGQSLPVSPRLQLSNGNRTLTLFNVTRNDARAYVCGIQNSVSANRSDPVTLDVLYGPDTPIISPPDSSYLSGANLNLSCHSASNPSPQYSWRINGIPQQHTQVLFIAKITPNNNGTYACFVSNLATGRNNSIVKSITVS
Method: as §1

[4] = molecular target: T2, NCEA (CEA/CEACAM5 N domain to B3 domain); assay: SPR; Biacore 2000; loop mutant, weakened or no binding per text; conditions: tags: pET28a(+), Ni-NTA (His), E. coli BL21
Method: as §1

[5] = molecular target: T1, ACEA (CEA/CEACAM5 A1 domain to B3 …); assay: SPR; Biacore 2000; GROUP I member tested not specified (SEQ 1-12); conditions: tags: pET28a(+), Ni-NTA (His), E. coli BL21
Method: (§2) To measure the affinity of RNA to CEA, SPR analysis was performed with Biacore 2000 (GE healthcare) device. Various concentrations of RNAs (GROUP 1, 2, 3 and library in FIG. 2) were flowed on NCEA and ACEA to measure the binding affinity.
(§3) The above value is measured using BIAevaluation program (which is used to analyze graph obtained from BIAcore device).

[6] = molecular target: T2, NCEA (CEA/CEACAM5 N domain to B3 domain); assay: as above; conditions: tags: pET28a(+), Ni-NTA (His), E. coli BL21
Method: as §2, §3

T1 sequence (P06731 145-675, stated change not applied, one chain of several): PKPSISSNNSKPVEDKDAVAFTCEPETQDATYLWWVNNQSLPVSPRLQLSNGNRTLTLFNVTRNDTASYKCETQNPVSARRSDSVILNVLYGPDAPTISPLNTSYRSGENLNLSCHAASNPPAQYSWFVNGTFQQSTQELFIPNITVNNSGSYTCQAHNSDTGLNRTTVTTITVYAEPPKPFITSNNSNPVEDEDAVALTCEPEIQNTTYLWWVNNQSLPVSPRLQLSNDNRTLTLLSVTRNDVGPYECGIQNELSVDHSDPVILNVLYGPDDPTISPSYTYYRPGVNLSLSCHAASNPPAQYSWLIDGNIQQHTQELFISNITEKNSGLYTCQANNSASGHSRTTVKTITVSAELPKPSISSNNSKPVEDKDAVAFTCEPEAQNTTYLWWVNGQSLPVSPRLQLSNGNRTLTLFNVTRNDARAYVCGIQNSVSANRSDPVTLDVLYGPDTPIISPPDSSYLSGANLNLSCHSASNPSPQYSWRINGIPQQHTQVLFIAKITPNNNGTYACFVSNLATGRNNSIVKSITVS

“NCEA (protein consisting of N domain to B3 domain of CEA, CEACAM5) cloned in the pM vector as a GAL4 DNA-BD fusion (from UniProt P04386 1-147; P06731 35-676)” showed an SEAP activity in the medium of transfected cells (mammalian two-hybrid system) [1] of 2.5 fold.

B1: Truncated GROUP 1-1 (19-1, YJ-1) (ssRNA)
RNA: GCGGAAGCGUGCUGGGCUAGAAUAAUAAUAAGAAAACCAGUACUUUCGU
modifications: 2'-F pyrimidines (C and U)
For B1, the Kd ([2]; hairpin-loop (predicted)) was 600 nM and the Kd [3] was 0.77 nM.

B2: Truncated GROUP 1-2 (19-2) (ssRNA)
RNA: GUGCUGGGCUAGAAUAAUAAUAAGAAAACCAGUAC
modifications: 2'-F pyrimidines (C and U)
Work on B2 yielded a Kd ([2]; hairpin-loop (predicted)) of 590 nM and a Kd [3] of 4 nM.

B3: Mutant GROUP 1-1 (m19-1, mutant YJ-1) (ssRNA)
RNA: GCGGAAGCGUGCUGGGCUAGGGCGGCGGCGGGAAAACCAGUACUUUCGU
modifications: 2'-F pyrimidines (C and U)
B3 gave a Kd [2] of 790 nM and a Kd [4] of 1300 nM.

B4: Mutant GROUP 1-2 (m19-2) (ssRNA)
RNA: GUGCUGGGCUAGGGCGGCGGCGGGAAAACCAGUAC
modifications: 2'-F pyrimidines (C and U)
For B4, the Kd [2] was 630 nM and the Kd [4] was 420 nM.

B5: Loop only (ssRNA)
RNA: GGCUAGAAUAAUAAUAAGAAAAC
modifications: 2'-F pyrimidines (C and U)
B5 showed a Kd [2] of 1100 nM.

B6: GROUP I RNA aptamer (ssRNA)
RNA: GGGAGAGCGGAAGCGUGCUGGGCUAGAAUAAUAAUAAGAAAACCAGUACUUUCGUGUCCCGGGAGGGUGCAUAACCCAGAGGUCGAUGGAUCC
modifications: 2'-F pyrimidines (C and U)
Work on B6 yielded a Kd [5] of 3.22 nM and a Kd [6] of 0.313 nM.

Source: patent US20140235698A1, “RNA Aptamer Specifically Binding to Carcinoembryonic Antigen and Use thereof” (POSCO, published 2014)
